PMC6765138 (Nucleic Acids Research, 2019)

Experiments:
crystal structure = biological target: the molecule itself; assay: crystal structure
SEC = biological target: the molecule itself; assay: SEC

B1: Se-Met-MtPrpR_(81–486) (selenomethionine-derived MtPrpR_(81–486)) (domain or fragment)
chain: DARLVADLSDVFTDIGVEHAVSGAQIEEFVARMPEVGHSLVAVHRRLRAATEELEGYRSRATAETELPPARPMPFEEVRDFFYDRNNYIHDLDMAAERMFTESGMRTGGLDIQLAELMRDRFGISVVIDDNLPDTAKRRYHPDTKVLRVAHWLMPGQRAFQIATQLALVGQSDLISSIVATDDQLSTEARGVARIGLANYFAGAFLLPYREFHRAAEQLRYDIDLLGRRFGVGFETVCHRLSTLQRPRQRGIPFIFVRTDKAGNISKRQSATAFHFSRVGGSCPLWVVHDAFAQPERIVRQVAQMPDGRSYFWVAKTTAADGLGYLGPHKNFAVGLGCDLAHAHKLVYSTGVVLDDPSTEVPIGAGCKICNRTSCAQRAFPYLGGRVAVDENAGSSLPYSSTEQSV
modifications: selenomethionine incorporated in place of methionine
notes: also called Se-PrpR_(81–486); not shown: His6, N-terminal, kept
- stoichiometry N (crystal structure): 4

B2: MtPrpR_(81–486)_F155H variant (domain or fragment)
chain: DARLVADLSDVFTDIGVEHAVSGAQIEEFVARMPEVGHSLVAVHRRLRAATEELEGYRSRATAETELPPARPMPHEEVRDFFYDRNNYIHDLDMAAERMFTESGMRTGGLDIQLAELMRDRFGISVVIDDNLPDTAKRRYHPDTKVLRVAHWLMPGQRAFQIATQLALVGQSDLISSIVATDDQLSTEARGVARIGLANYFAGAFLLPYREFHRAAEQLRYDIDLLGRRFGVGFETVCHRLSTLQRPRQRGIPFIFVRTDKAGNISKRQSATAFHFSRVGGSCPLWVVHDAFAQPERIVRQVAQMPDGRSYFWVAKTTAADGLGYLGPHKNFAVGLGCDLAHAHKLVYSTGVVLDDPSTEVPIGAGCKICNRTSCAQRAFPYLGGRVAVDENAGSSLPYSSTEQSV
notes: also called MtPrpR_(81–486)_F155H mutant; MtRamB-like mutant of MtPrpR; not shown: His6, N-terminal, kept
- stoichiometry N (SEC): 4
